{"source": "patent US20040175375A1", "about": "(SEOUL NATIONAL UNIVERSITY INDUSTRY FOUNDATION, published 2004)", "key": {"HA-FBP": {"biological_target": "T1, HA-FBP (human, UniProt Q96AE4 1-644)", "T1 construct": "also called HA-tagged FBP; FBP expression plasmid product; not shown: HA tag from HA-tagged pcDNA3 (Invitrogen)", "T1 sequence (looked up)": "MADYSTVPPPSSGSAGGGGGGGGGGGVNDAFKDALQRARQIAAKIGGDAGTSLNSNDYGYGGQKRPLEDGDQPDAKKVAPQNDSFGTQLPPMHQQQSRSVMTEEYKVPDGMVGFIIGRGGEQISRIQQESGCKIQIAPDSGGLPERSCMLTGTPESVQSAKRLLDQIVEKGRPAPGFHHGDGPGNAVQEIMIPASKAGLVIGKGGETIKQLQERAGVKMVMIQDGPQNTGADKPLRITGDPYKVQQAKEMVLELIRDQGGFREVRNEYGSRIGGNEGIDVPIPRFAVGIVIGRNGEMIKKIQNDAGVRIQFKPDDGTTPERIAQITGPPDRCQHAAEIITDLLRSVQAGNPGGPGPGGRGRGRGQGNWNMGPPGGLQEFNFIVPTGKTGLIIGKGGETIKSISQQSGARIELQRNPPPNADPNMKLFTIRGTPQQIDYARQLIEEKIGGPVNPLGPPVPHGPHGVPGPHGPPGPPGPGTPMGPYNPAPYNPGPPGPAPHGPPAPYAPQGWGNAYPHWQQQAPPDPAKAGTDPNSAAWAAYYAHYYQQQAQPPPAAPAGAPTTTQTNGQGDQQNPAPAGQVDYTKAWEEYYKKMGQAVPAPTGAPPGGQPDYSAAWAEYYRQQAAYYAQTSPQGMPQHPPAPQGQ", "assay": "co-immunoprecipitation with anti-myc from 293 cells, western blot", "description": "The transfected cells were lysed with the RIPA buffer for 16 hours after the transfection. […] After a protein A-agarose bead had been added to the above reactant, the mixture was incubated further for 1 hour at 4° C. The bead was washed with lysis buffer four times. The precipitated proteins were analyzed by SDS-PAGE and then transferred onto nitrocellulose membranes."}, "[1]": {"biological_target": "T2, myc-(p38/JTV-1), amino acids 1-312 (full length)", "T2 chain": "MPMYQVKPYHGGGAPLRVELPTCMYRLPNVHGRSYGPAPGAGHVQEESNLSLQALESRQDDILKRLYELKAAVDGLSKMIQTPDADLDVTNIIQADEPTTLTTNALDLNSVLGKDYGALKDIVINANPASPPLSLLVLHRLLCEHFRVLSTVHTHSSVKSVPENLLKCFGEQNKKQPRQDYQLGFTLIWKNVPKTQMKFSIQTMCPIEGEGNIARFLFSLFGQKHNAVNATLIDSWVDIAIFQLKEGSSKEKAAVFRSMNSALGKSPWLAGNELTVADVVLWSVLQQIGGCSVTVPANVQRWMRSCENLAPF"}, "[2]": {"biological_target": "T3, B42-QRS (glutaminyl-tRNA synthetase) (UniProt P47897 1-775)", "T3 construct": "Yeast two-hybrid prey; also called pB42-QRS; not shown: B42 protein from pB42 vector (Invitrogen)", "T3 sequence (looked up)": "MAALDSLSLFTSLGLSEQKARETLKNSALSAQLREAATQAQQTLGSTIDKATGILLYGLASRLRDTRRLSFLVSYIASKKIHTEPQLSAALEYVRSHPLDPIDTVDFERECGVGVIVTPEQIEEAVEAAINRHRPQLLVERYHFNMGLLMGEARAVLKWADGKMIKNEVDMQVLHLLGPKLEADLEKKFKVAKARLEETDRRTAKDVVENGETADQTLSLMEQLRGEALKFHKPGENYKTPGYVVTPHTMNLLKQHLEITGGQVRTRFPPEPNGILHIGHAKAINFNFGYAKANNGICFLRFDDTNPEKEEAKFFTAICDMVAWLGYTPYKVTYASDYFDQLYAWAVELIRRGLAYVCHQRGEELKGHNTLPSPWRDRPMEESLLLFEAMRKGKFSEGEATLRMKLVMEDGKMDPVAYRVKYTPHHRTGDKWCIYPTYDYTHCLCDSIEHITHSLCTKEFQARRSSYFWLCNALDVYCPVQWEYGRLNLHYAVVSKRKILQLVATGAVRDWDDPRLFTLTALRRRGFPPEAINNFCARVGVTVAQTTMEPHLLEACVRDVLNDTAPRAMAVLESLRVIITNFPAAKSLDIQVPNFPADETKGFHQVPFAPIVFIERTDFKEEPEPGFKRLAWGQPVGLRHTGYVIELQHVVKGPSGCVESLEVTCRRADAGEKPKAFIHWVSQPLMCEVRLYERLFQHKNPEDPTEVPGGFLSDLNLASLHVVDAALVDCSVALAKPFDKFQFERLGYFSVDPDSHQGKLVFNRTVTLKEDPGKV", "assay": "yeast two-hybrid (LexA system), blue colony on X-gal", "source_text": "(§1) Using the recombinant plasmids constructed in the above, Saccaromyces cerevisiae EGY48 (Clontech laboratories Inc. Estojak et al. (1995)) having a lacZ plasmid (p8op-LacZ) as a probe gene was transformed according to the known methods (Golemis, E. A., et al., In Current Protocols in Molecular Biology, 1994)."}, "B42-(p38/JTV-1)": {"biological_target": "T4, B42-(p38/JTV-1) (human, UniProt Q13155 1-312)", "T4 construct": "Yeast two-hybrid prey; also called pB42-(p38/JTV-1); not shown: B42 protein from pB42 vector (Invitrogen)", "T4 sequence": "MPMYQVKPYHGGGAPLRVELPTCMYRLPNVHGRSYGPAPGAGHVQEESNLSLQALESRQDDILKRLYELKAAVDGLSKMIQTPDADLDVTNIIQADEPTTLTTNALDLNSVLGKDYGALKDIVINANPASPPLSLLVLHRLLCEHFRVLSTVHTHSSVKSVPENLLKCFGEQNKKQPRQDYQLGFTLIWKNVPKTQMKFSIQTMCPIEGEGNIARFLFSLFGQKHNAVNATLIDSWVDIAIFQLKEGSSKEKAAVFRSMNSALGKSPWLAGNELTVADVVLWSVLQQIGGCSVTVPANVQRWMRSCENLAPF", "assay": "yeast two-hybrid (LexA system), blue colony on X-gal", "source_text": "as §1"}, "[3]": {"biological_target": "T5, B42-WRS (tryptophanyl-tRNA synthetase) (UniProt P23381 1-471)", "T5 construct": "Yeast two-hybrid prey; also called tryptophanyl-WRS; pB42-WRS; not shown: B42 protein from pB42 vector (Invitrogen)", "T5 sequence (looked up)": "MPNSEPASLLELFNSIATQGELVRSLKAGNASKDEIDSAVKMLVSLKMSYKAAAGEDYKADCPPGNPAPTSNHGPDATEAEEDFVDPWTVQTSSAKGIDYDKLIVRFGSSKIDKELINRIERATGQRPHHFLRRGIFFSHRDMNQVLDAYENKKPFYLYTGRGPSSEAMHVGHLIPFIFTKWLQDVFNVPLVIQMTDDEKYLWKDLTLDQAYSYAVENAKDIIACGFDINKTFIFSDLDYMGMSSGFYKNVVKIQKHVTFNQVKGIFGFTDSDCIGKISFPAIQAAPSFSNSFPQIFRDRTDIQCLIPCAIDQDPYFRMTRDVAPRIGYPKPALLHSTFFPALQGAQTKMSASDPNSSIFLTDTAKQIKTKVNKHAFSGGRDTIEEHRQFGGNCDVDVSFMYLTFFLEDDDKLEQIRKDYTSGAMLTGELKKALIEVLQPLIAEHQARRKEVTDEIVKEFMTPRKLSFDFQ", "assay": "yeast two-hybrid (LexA system), blue colony on X-gal", "source_text": "as §1"}, "[4]": {"biological_target": "T6, B42-YRS (tyrosyl-tRNA synthetase) (UniProt P54577 1-528)", "T6 construct": "Yeast two-hybrid prey; also called tyrosyl-YRS; pB42-YRS; not shown: B42 protein from pB42 vector (Invitrogen)", "T6 sequence (looked up)": "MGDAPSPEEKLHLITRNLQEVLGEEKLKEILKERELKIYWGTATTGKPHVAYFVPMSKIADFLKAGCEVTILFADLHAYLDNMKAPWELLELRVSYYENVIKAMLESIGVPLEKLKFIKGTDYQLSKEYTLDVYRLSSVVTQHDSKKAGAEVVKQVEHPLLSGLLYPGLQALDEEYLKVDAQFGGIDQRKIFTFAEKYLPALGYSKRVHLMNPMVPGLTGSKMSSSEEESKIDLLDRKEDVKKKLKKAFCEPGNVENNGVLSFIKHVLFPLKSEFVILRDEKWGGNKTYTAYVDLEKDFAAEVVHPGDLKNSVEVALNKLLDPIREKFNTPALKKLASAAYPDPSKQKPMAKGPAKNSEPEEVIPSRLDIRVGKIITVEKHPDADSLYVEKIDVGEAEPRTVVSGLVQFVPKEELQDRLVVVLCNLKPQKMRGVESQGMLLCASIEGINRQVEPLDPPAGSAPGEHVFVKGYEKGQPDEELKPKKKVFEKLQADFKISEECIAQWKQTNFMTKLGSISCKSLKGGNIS", "assay": "yeast two-hybrid (LexA system), blue colony on X-gal", "source_text": "as §1"}, "[5]": {"biological_target": "T7, PDK-1 (phosphoinositide-dependent kinase) (UniProt O15530 1-556, limits assumed)", "T7 construct": "Endogenous protein of the cell lysate", "T7 sequence (looked up)": "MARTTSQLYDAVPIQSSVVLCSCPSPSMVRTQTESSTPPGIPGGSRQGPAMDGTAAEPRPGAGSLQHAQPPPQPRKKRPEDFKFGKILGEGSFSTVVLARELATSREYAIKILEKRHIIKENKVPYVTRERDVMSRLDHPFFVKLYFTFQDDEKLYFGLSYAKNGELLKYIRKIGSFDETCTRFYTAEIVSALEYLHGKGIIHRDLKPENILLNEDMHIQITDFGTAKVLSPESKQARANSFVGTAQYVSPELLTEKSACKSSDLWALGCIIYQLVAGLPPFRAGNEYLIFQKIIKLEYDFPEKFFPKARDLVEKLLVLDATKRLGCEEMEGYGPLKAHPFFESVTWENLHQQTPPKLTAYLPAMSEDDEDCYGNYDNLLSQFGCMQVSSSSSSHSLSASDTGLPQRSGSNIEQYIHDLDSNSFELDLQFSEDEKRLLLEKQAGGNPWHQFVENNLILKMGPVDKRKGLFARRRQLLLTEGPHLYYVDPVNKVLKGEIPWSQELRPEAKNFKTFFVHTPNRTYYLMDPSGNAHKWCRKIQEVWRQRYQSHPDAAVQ", "assay": "anti PDK-1 immunoprecipitation from HCT116 cells treated with FasL or TNF, western blot with p38/JTV-1 antibody"}}}
{"binder": "myc-tagged p38/JTV-1 deletion fragment, amino acids 162-312 (other, not shown: myc tag from myc-tagged pcDNA3 (Invitrogen)) PENLLKCFGEQNKKQPRQDYQLGFTLIWKNVPKTQMKFSIQTMCPIEGEGNIARFLFSLFGQKHNAVNATLIDSWVDIAIFQLKEGSSKEKAAVFRSMNSALGKSPWLAGNELTVADVVLWSVLQQIGGCSVTVPANVQRWMRSCENLAPF", "values": [{"measurement": "binding result", "setting": "HA-FBP", "result": "no binding"}]}
{"binder": "PDK-1 (phosphoinositide-dependent kinase) (protein) MARTTSQLYDAVPIQSSVVLCSCPSPSMVRTQTESSTPPGIPGGSRQGPAMDGTAAEPRPGAGSLQHAQPPPQPRKKRPEDFKFGKILGEGSFSTVVLARELATSREYAIKILEKRHIIKENKVPYVTRERDVMSRLDHPFFVKLYFTFQDDEKLYFGLSYAKNGELLKYIRKIGSFDETCTRFYTAEIVSALEYLHGKGIIHRDLKPENILLNEDMHIQITDFGTAKVLSPESKQARANSFVGTAQYVSPELLTEKSACKSSDLWALGCIIYQLVAGLPPFRAGNEYLIFQKIIKLEYDFPEKFFPKARDLVEKLLVLDATKRLGCEEMEGYGPLKAHPFFESVTWENLHQQTPPKLTAYLPAMSEDDEDCYGNYDNLLSQFGCMQVSSSSSSHSLSASDTGLPQRSGSNIEQYIHDLDSNSFELDLQFSEDEKRLLLEKQAGGNPWHQFVENNLILKMGPVDKRKGLFARRRQLLLTEGPHLYYVDPVNKVLKGEIPWSQELRPEAKNFKTFFVHTPNRTYYLMDPSGNAHKWCRKIQEVWRQRYQSHPDAAVQ", "values": [{"measurement": "expression level of the phosphorylated AKT (p-308 and p-473)", "setting": "[1]", "result": "when the expression level of p38/JTV-1 was increased, the expression level of the phosphorylated AKT (p-308 and p-473) was decreased"}]}
{"binder": "LexA-(p38/JTV-1) (other, Yeast two-hybrid bait expressed in S. cerevisiae EGY48; also called fusion protein of p38/JTV-1 and LexA; pLexA-(p38/JTV-1); not shown: LexA protein encoded by pLex202 vector (Invitrogen)) MPMYQVKPYHGGGAPLRVELPTCMYRLPNVHGRSYGPAPGAGHVQEESNLSLQALESRQDDILKRLYELKAAVDGLSKMIQTPDADLDVTNIIQADEPTTLTTNALDLNSVLGKDYGALKDIVINANPASPPLSLLVLHRLLCEHFRVLSTVHTHSSVKSVPENLLKCFGEQNKKQPRQDYQLGFTLIWKNVPKTQMKFSIQTMCPIEGEGNIARFLFSLFGQKHNAVNATLIDSWVDIAIFQLKEGSSKEKAAVFRSMNSALGKSPWLAGNELTVADVVLWSVLQQIGGCSVTVPANVQRWMRSCENLAPF", "values": [{"measurement": "binding result", "setting": "[2]", "result": "no binding"}, {"measurement": "binding result", "setting": "B42-(p38/JTV-1)", "result": "binds"}, {"measurement": "binding result", "setting": "[3]", "result": "no binding"}, {"measurement": "binding result", "setting": "[4]", "result": "no binding"}]}
{"binder": "myc-(p38/JTV-1), amino acids 1-312 (full length) (other, also called myc-tagged p38/JTV-1; p38/JTV-1 expression plasmid product; not shown: myc tag from myc-tagged pcDNA3 (Invitrogen)) MPMYQVKPYHGGGAPLRVELPTCMYRLPNVHGRSYGPAPGAGHVQEESNLSLQALESRQDDILKRLYELKAAVDGLSKMIQTPDADLDVTNIIQADEPTTLTTNALDLNSVLGKDYGALKDIVINANPASPPLSLLVLHRLLCEHFRVLSTVHTHSSVKSVPENLLKCFGEQNKKQPRQDYQLGFTLIWKNVPKTQMKFSIQTMCPIEGEGNIARFLFSLFGQKHNAVNATLIDSWVDIAIFQLKEGSSKEKAAVFRSMNSALGKSPWLAGNELTVADVVLWSVLQQIGGCSVTVPANVQRWMRSCENLAPF", "values": [{"measurement": "binding result", "setting": "[5]", "result": "binds"}]}
